# In the DeepSol protein solubility set:
# Experiment: soluble on expression in E. coli; label from the status in PepcDB or PDB records
row,Sequence,soluble on expression in E. coli
1,MGSDKIHHHHHHAAIPISVTKGPDGIKIHCLNSANNPLLGSPAYKNVRIVELEKVPFFQRINNIRKLEMNDDYLFVQTSEKLYTYTLNGELMAEIGRKGEREDDYSELSTFYIDNKKKQITIIDGVQNKLINYNFWGNYMFTDTISEGAFKWCYQTLLINNNQLLNYHGMSMDNTEPYSLFDLTKKEVIKRYFSYQPITLGNYVYPFSWHPMTRADKDIDVIMPLCDTVYTYSAASSSFQPKYIIEMTQKMAPKNKIRKNTPSYSGDLLKLDQQGYFTGFDGIYETDTKILLQYMYGITLGYFLFDKYTKTGSFYLYSQNDKGKTFPFNVIVHSYKNEFVAFGKGKELRSLTHIKDKKVREKIESLGDNSACLIFYELE,not soluble
2,MGSDKIHHHHHHMDITPFLDKKSKTPLYEQLYTFFKQEISHARITKGTRLPSKRRLSSLLDVSTATIERAYEQLTAEGYVKSKPKIGWFAAEVEPGFPTAPDHFQQSVQPGLHQKNAPAIDFHQGSVDPTLFPFNAWRKSIVKSLDRYSGSFHTSGDPQGEYELRHMIARFVRLSRGVNCEPGQIIIGAGTTVLLQNLCLSLKPGTKIGFEEPGFHRSRRMFEANHMDVTPICSDAEGVLPDELYRQNPYLMYTTPSHQFPIGTIMTITRRQELLAWAAETNSFIIEDDYDGEFRYSGHPIPSLQGLDPNGRVIYLGTFSKSLLPSLRLSFMIVPPELMEPIQNNVQLMKQTVSAHSQLALADFIETGEWQKHINRMRSLYRKKHAVLLEAIRSELGNTVEILGKNSGLHILLRLLFPASEEEAIQAAADHGVTLYPVSPSYIEQTPFTSVLIGYGGLSEEDIRLGIQKLKTAWAPLISSY,not soluble
3,MSLLNIIRLLAESLPRISDGNENTDVWVNDMKFKMAYSFLNDDIDVIERELEQTVRSDYPLLSEAGLHLLQAGGKRIRPVFVLLSGMFGDYDINKIKYVAVTLEMIHMASLVHDDVIDDAELRRGKPTIKAKWDNRIAMYTGDYMLAGSLEMMTRINEPKAHRILSQTIVEVCLGEIEQIKDKYNMEQNLRTYLRRIKRKTALLIAVSCQLGAIASGADEKIHKALYWFGYYVGMSYQIIDDILDFTSTEEELGKPVGGDLLQGNVTLPVLYALKNPALKNQLKLINSETTQEQLEPIIEEIKKTDAIEASMAVSEMYLQKAFQKLNTLPRGRARSSLAAIAKYIGKRKFEGHHHHHH,not soluble
4,MVKSFRMKALIAGAAVAAAVSAGAVSDVPAAKVLQPTAAYAAETVFSQNNGASGFLPGRYDVQAMAPAMFNWSRESRFAGNTDGTLKWQNDIRTTPQNGAGAVIDGDGTVYLHSRDGEMKAFNPDGSVKWVTGNLGKTYTQSPVLGTNGVIYLASYDKKIYFIDKETGEILTTVPLSGGPSSETVIGSDGTLYFSTLDNYVHAIKPTSKSTWTERWKLKTNGVVSSVPVLAKNGTVYVGTYNYVFYAINSGTGQVKWSRTTSNAFKGYPVIDKDGNIYAGNQDGQLYAYTSTGSLKWTFPLNGFSSSSPAIDHNGNIYIGSGSGELFSISKNGDMNWSFYTDGPVRTAPLIDAKGTVYFGSDDMKVYAADANGNELWSYQTDSNVVSSPQLAEDGTLYIGSYTKLMAFGKLEHHHHHH,soluble
5,MKQKVVSIGDINVANDLPFVLFGGMNVLESRDLAMRICEHYVTVTQKLGIPYVFKASFDKANRSSIHSYRGPGLEEGMKIFQELKQTFGVKIITDVHEPSQAQPVADVVDVIQLPAFLARQTDLVEAMAKTGAVINVKKPQFVSPGQMGNIVDKFKEGGNEKVILCDRGANFGYDNLVVDMLGFSIMKKVSGNSPVIFDVTHALQCRDPFGAASGGRRAQVAELARAGMAVGLAGLFIEAHPDPEHAKCDGPSALPLAKLEPFLKQMKAIDDLVKGFEELDTSK,soluble
6,MSLNEPLAERIRPKTLEDYVSQQHLVGENGILTKLIKQGIIPSLILWGPPGIGKTTLANIIATTSNRPFYTLSAISSGVKDVRDVIEKAKKSGGLFTAKNPILFIDEIHRFSKSQQDSLLGAVEKGWVTLIGATTENPSFEVIPALLSRCQIYILNSFDKEELIALLHRAMEKDAFLSSKKIILKETEALLQVSGGDARKLLNIFELLVSVDDEVVITNELVLSKIQKNTARYDKSGPQHYDIVSAFIKSIRGSDPNAAVYWLARMIEGGEDVKFIARRMLILASEDIGNANPTALIMANNTFQAVAIVGNPESRIILSQCAIYLSNSAKSNASYLAIGAAQKLVQETGDLSVPLNLRNAPTKLMKDLDYGADYKYSHDYPNSFVAQEFLPKTLSGNKIYTPGKNPREQQFKEVLKNRWKNKYEGHHHHHH,not soluble
7,MGSDKIHHHHHHMISDHDGEFGSQNVRAALPSLMALRCFEAAARHEHFSRAADELHLTHGAVSRAVRLLEDDLGVALFERRSRRVFLTDAGRKLAQAVHDGLHLMRQAAHELRTDAARAQRWVLSCEPTLLMRWLIPRWPDFQATYPRVDIHLAAAGGPFSFDHGIDIAIRRNDFAWPAGYHAERLFTERVGPVCRPDRVDTWFSGGRDDRALKRGAPRLHTRTRPDAWKEWAAAAHQPAGSGRGQMFDHFYFSLQAAVAGLGVAIGPWHLVRDDLESEVLVAPMGFVQDGSHYCLLTPEPVKDGSAQSALLDWLRTMA,not soluble
8,METAPKPVGPYSQAVESGCFMFVSGQIPINPETGALEEGGFKESAKRALDNLKAIVEGAGYSMDDIVKVTVYITDISRFSEFNEVYREYFNRPYPARAVVGVAALPLGAPLEVEAVLYTCRRK,soluble
9,MNLIDNHIHTNFSSDGKDSMEDTIKKAISIGVRYLTFTDHLEHDEDRGFCINYNDYVPVFNKFKEKYKKDIELLLGVEVGYRKHLKNEIEEIINSNPFDFVLCSTHTIDNVPVPSKAYFKGLSKEDAYYKYFNSILETNREFGDYNIYGHLDYISRYGIYSDNRVIYNDFKDVIDEVLKSIINNGSGIELNTSGYRYGLNAIHPNEDILKRYKELGGFIVTVGSDSHRVEDICKDFDVAYDMLKYLDFKYVSLFKERETYFVNIEKVKSNNIA,not soluble
10,MIVIPMAGMSSRFFKAGYTQPKYMLEAHGQTLFEHSVNSFAAYFASTPFLFIVRNVYDTAVFVREKATQLGIKQFYIAELHTETRGQAETVTLGLEELAKQGVDYQGSITVFNIDTFRPNFVFPDISQHSDGYLEVFQGGGDNWSFAKPEHAGSTKVIQTAEKNPISDLCSTGLYHFNRKEDYLEAYREYVARPSQEWERGELYIAPLYNLLIQKGLNIHYHLIARHEVIFCGVPDEYTDFLRQPQPLEHHHHHH,soluble
11,MGSDKIHHHHHHVNIQEQFLGSGSRGSYELHLVDRRPKDVLEQAEALPFWKQDYTQLDKGAFSGAVTSVSCQGIQIFREKMNRAVDQLASAPADTYVIGLPTMIEGEATWGMLPVKQDSLITLNKNTELLFRTSHCSEIAAAVISAQRLEEYAALVEWVDLREIMRKVKAVEQISSTIANRLMTSLVGGTRYISDVHESASVKHMWPNFEEDLMSTCLQALVQAKDSINHHYDHRIHRYIVNRVRDFTLLNSCCPLTISELCIELRVSRRTLNHAFLRVLGITPVAYMRNVRLHRVRAELQSAPDSVTSIANVATKWGFWHMSLFSRYYRELFGECPNKTLERTRLHKA,not soluble
12,MSLDSACEGRFVNPITDICWSCIFPLSLGSIKVSQGKVPDTANPSMPIQICPAPAPLFRRIGLAIGYWEPMALTDVTRSPGCMVNLGFSLPAFGKTAQGTAKKDEKQVNGAFYHVHWYKYPLTYWLNIITSLGCLEGGDMDIAYLSEIDPTWTDSSLTTILNPEAVIFANPIAQGACAADAIASAFNMPLDVLFWCAGSQGSMYPFNGWVSNESSPLQSSLLVSERMAFKLHRQGMIMETIGKNNAVCNEYPSPILPKERWRYQMVNMYPDSGQCHPFGRSVMPWETGKNPPNTKKNFGYLMWRKRNCVFLEGHHHHHH,soluble
13,MSLNVFDATLKRLEYIFEEFDKVYFSFSGGKDSGLMVQLANLVAEKLDRNFDLLILNIEANYTATVDFIKKIEQLPRVKNIYHFCLPFFEDNNTSFFQPQWKMWDPSEKEKWIHSLPKNAITLENIDDGLKKYYSLSNGNPDRFLRYFQNWYKEQYPQSAISCGVGIRAQESLHRHSAVTKGENKYKNRCWINITLEGNILFYPLFDWKVGDIWAATFKCELEYNYIYEKMYKIGYKYRDMREGHHHHHH,soluble
14,MAFLLKLEPDMQGKVDLFRARIAQEAEDLVSTFFPQKVLELNSRVQELRLQDLSRIHSVPTSEPLATPGNKGDGPNQNLPVLLTQFSIKVPALLGSEGQLLRSNQHLVELTEWVKPEIKLLREKCNTVHM,not soluble
15,MGSDKIHHHHHHMYLSQLKAGGVICRQGETARLVPGFSSTYDLAKAAIAAKVSITDLIAKQGAGDTVDLAALAASGKLDCPVRHPDAAHMFLTGTGLTHTGSASARDNMHADTAGMSDSMKMFRMGLEGGKPKAGEWGVQPEWFYKGTGVNAIAPGDGLESPSFALDGGEEPEIAGFYVIDNDGTPVRLGFSLANEFSDHVTEKINYLYLAHSKLRPASFGPELLVGDLPANVTGASKILRDGKTVWEKPFLSGEDNMSHTIANLEYHHFKYGLFCQPGDLHVHMFGTATLSFADGFKTVPGDVFEVSASQFGLPLQNPLVVAAETPFAVKTL,not soluble
16,MAIIGIDLGTTNSLVATWSEDGATLIPNVLGEFLTPSVVSVDETGEILVGRIAKERLITHPQLTAATFKRFIGTEKKYELGTYTFSSEELSSFVIKSLKQDAEAYLNEEVTGAVISVPAYFNDTQRKSTKRAAEIAGLTVERLISEPTAAAIAYGLYQEESETKFLVFDLGGGTFDVSILELFEGIMDVKSIAGDNYLGGEDFTRSLMTFFLESHQLDPDSLDSKTLSLIYTQAERCKLTLCNESAATMNVVIQNQTYETSINRGEFEKIVTPLLLRLRYPIERALRDASLNPNDLDAVILIGGATRMPLVKSVISKMFGRMPYANINPDETVALGAAIQVALKERNKALEEVILTDVCPYSLGTSVVQEFGDGKSESGYFFPIIERNTPIPVSKVERLYTVKDKQQFITIDVYQGENRRVVNNLKLGELKIKIPPAPAGNESVDIRYTYDINGILEVEVISTSTGEKKRTIIQQNAGNLTDAEIEKRLLELRDIKIHPRDREENRLLLAKCERLYEELLGDERKKISILLQQFESVLTTQNDKKIKEASSILKEHIESMERWANR,not soluble
17,RQTRIMDSAQYAEFCESRQLSFSKKASKFRDWLDCSSMEIKPNVVAMEILAYLAYETVAQLVDLALLVRQDMVTKAGDPFSHAISATFIQYHNSAESTAACGVEAHSDAIQPCHIREAIRRYSHRIGPLSPFTNAYRRNGMAFLAC,soluble
18,MKFPGKRKSKHYFPVNARDPLLQQFQPENETSAAWVVGIDQTLVDIEAKVDDEFIERYGLSAGHSLVIEDDVAEALYQELKQKNLITHQFAGGTIGNTMHNYSVLADDRSVLLGVMCSNIEIGSYAYRYLCNTSSRTDLNYLQGVDGPIGRCFTLIGESGERTFAISPGHMNQLRAESIPEDVIAGASALVLTSYLVRCKPGEPMPEATMKAIEYAKKYNVPVVLTLGTKFVIAENPQWWQQFLKDHVSILAMNEDEAEALTGESDPLLASDKALDWVDLVLCTAGPIGLYMAGFTEDEAKRKTQHPLLPGAIAEFNQYEFSRAMRHKDCQNPLRVYSHIAPYMGGPEKIMNTNGAGDGALAALLHDITANSYHRSNVPNSSKHKFTWLTYSSLAQVCKYANRVSYQVLNQHSPRLTRGLPEREDSLEESYWDR,not soluble
